Results from paper PMC6108177 (Nature structural & molecular biology, 2017).

Columns and labels:
[1] = biological target: Human TRF1 TRFH domain (residues 65–267) (human) (UniProt P54274); test: ITC
crystal structure = biological target: the molecule itself; test: crystal structure

Row | Kd [1] [µM] | Molecule | stoichiometry N (crystal structure)
1 | 5.6 | Human TERB1 TBM (TRF1-binding motif, residues 642–656) (from UniProt Q8NA31-1 642-656) (peptide) | 
2 |  | Human TRF1 TRFH domain (residues 65–267) (domain or fragment, UniProt P54274 65-267, looked up) GLVAEAEAVAAGWMLDFLCLSLCRAFRDGRSEDFRRTRNSAEAIIHGLSSLTACQLRTIYICQFLTRIAAGKTLDAQFENDERITPLESALMIWGSIEKEHDKLHEEIQNLIKIQAIAVCMENGNFKEAEEVFERIFGDPNSHMPFKSKLLMIISQKDTFHSFFQHFSYNHMMEKIKSYVNYVLSEKSSTFLMKAAAKVVESK | 2
